Results: US20150197564A1 (Regeneron, published 2015)

B1: hANGPTL3(17-460)-His (other)
chain: SRIDQDNSSFDSLSPEPKSRFAMLDDVKILANGLLQLGHGLKDFVHKTKGQINDIFQKLNIFDQSFYDLSLQTSEIKEEEKELRRTTYKLQVKNEEVKNMSLELNSKLESLLEEKILLQQKVKYLEEQLTNLIQNQPETPEHPEVTSLKTFVEKQDNSIKDLLQTVEDQYKQLNQQHSQIKEIENQLRRTSIQEPTEISLSSKPRAPRTTPFLQLNEIRNVKHDGIPAECTTIYNRGEHTSGMYAIRPSNSQVFHVYCDVISGSPWTLIQHRIDGSQNFNETWENYKYGFGRLDGEFWLGLEKIYSIVKQSNYVLRIELEDWKDNKHYIEYSFYLGNHETNYTLHLVAITGNVPNAIPENKDLVFSTWDHKAKGHFNCPEGYSGGWWWHDECGENNLNGKYNKPRAKSKPERRRGLSWKSQNGRLYSIKSTKMLIHPTDSESFEHHHHHHHHHH
B2: mANGPTL3(17-455)-His (other)
chain: SRVDPDLSSFDSAPSEPKSRFAMLDDVKILANGLLQLGHGLKDFVHKTKGQINDIFQKLNIFDQSFYDLSLRTNEIKEEEKELRRTTSTLQVKNEEVKNMSVELNSKLESLLEEKTALQHKVRALEEQLTNLILSPAGAQEHPEVTSLKSFVEQQDNSIRELLQSVEEQYKQLSQQHMQIKEIEKQLRKTGIQEPSENSLSSKSRAPRTTPPLQLNETENTEQDDLPADCSAVYNRGEHTSGVYTIKPRNSQGFNVYCDTQSGSPWTLIQHRKDGSQDFNETWENYEKGFGRLDGEFWLGLEKIYAIVQQSNYILRLELQDWKDSKHYVEYSFHLGSHETNYTLHVAEIAGNIPGALPEHTDLMFSTWNHRAKGQLYCPESYSGGWWWNDICGENNLNGKYNKPRTKSRPERRRGIYWRPQSRKLYAIKSSKMMLQPTTHHHHHHHHHH

Legend:
bovine LPL = biological target: T1, bovine LPL (bovine, UniProt P11151 29-478, limits assumed); assay: cell-based or functional assay
T1 sequence (looked up): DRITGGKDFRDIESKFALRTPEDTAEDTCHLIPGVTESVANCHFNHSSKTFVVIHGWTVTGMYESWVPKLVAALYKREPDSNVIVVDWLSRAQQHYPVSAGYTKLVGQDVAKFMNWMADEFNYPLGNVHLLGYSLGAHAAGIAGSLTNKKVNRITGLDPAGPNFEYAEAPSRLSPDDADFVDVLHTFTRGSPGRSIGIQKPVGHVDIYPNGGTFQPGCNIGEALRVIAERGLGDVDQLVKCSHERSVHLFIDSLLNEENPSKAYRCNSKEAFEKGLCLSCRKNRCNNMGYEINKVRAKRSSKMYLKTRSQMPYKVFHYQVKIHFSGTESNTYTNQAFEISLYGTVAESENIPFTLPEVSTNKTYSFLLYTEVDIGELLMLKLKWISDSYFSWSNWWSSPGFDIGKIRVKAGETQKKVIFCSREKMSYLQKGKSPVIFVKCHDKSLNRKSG

hANGPTL3(17-460)-His [1] = biological target: B1; assay: SPR Biacore, antigen captured, 25C, pH 7.4, HBS-EP
Method: (§1) All kinetic binding experiments were performed at 25° C. or 37° C. on a BIACORE™ T200 label-free molecular interaction instrument (GE Healthcare) using a CM5 sensor chip. Briefly, an antigen capture surface was generated by covalently coupling either an anti-mouse IgG-specific antibody (anti-mFc; GE Healthcare; catalog #BR-1008-38) or an anti-pentahistidine-specific antibody (Qiagen; catalog #34660) to the surface of a CM5 sensor chip using a standard amine coupling method.

hANGPTL3(17-169)-mFc = biological target: T2, hANGPTL3(17-169)-mFc (human); assay: SPR Biacore, antigen captured, 25C, pH 7.4, HBS-EP
T2 construct: also called N-terminal coiled-coil domain of hANGPTL3 with a C-terminal mouse Fc fusion
T2 chain: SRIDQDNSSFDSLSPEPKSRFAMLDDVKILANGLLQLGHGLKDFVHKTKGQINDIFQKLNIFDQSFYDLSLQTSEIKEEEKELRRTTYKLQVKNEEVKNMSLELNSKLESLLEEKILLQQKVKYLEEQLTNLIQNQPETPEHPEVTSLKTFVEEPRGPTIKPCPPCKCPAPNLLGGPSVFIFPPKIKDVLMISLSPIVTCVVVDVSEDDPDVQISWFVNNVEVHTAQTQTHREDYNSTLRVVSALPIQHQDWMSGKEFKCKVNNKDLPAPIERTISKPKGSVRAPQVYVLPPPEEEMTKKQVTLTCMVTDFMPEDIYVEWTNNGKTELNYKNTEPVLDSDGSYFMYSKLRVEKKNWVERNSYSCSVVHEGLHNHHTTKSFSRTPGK
Method: as §1

hANGPTL3(17-460)-His [2] = biological target: B1; assay: SPR Biacore, antigen captured, 37C, pH 7.4, HBS-EP
Method: as §1

mANGPTL3(17-455)-His = biological target: B2; assay: SPR Biacore, antigen captured, 37C, pH 7.4, HBS-EP
Method: as §1

Binder	EC50 (nM), inhibition of LPL activity (bovine LPL) [nM]	Kd (hANGPTL3(17-460)-His [1]) [nM]	koff (hANGPTL3(17-460)-His [1]) [s⁻¹]	kon (hANGPTL3(17-460)-His [1]) [M⁻¹ s⁻¹]	t1/2 (hANGPTL3(17-460)-His [1]) [min]	Kd (hANGPTL3(17-169)-mFc) [nM]	koff (hANGPTL3(17-169)-mFc) [s⁻¹]	kon (hANGPTL3(17-169)-mFc) [M⁻¹ s⁻¹]	t1/2 (hANGPTL3(17-169)-mFc) [min]	Kd (hANGPTL3(17-460)-His [2]) [nM]	koff (hANGPTL3(17-460)-His [2]) [s⁻¹]	kon (hANGPTL3(17-460)-His [2]) [M⁻¹ s⁻¹]	t1/2 (hANGPTL3(17-460)-His [2]) [min]	binding result (mANGPTL3(17-455)-His)
hANGPTL3(17-170)-His (other) SRIDQDNSSFDSLSPEPKSRFAMLDDVKILANGLLQLGHGLKDFVHKTKGQINDIFQKLNIFDQSFYDLSLQTSEIKEEEKELRRTTYKLQVKNEEVKNMSLELNSKLESLLEEKILLQQKVKYLEEQLTNLIQNQPETPEHPEVTSLKTFVEKHHHHHH	91	–	–	–	–	–	–	–	–	–	–	–	–	–
H4H1296P (antibody, IgG4, V domains shown) VH: QVQLVESGGVSVKPGGSLRLSCAASGFTFSDYYMSWIRQAPGKGLEWVSYIGSSGTNDYYADSVKGRFTISRDNAKNSLYLQMDSLRAEDTAVYYCARDSSQMGFDYWGQGTLVTVSS VL: DIQMTQSPSSLSASVGDRVTITCRASQNIINFLNWYQQRPGKAPQLLIYVAASLQSGVPSRFTGSGYGTDFTLTISSLQPEDFATYYCQQTYTNPLTFGGGTKVEIKR	–	0.137	4.12e-05	301000	280	0.0611	3.92e-05	641000	295	–	–	–	–	–
B1	50	–	–	–	–	–	–	–	–	–	–	–	–	–
H4H1248P (antibody, IgG4, V domains shown) VH: QVQLVESGGGVVQPGRSLRLSCAASGFTFSSYGMHWVRQAPGKGLEWVAVISYDGSNKYYADSVKGRFTISRDNSKNTLYLQMNSLRAEDTAVYYCAKVGATTFYYYYGMDVWGQGTTVTVSS VL: DIQMTQSPSSVSAFVGDRVTITCRASQGISSWLAWYQQKPGKAPKLLIYAASSLQSGVPSRFSGSGSGTDFTLTISSLQPEDFATYYCQKANSFPFTFGPGTKVEIK	–	5.62	0.00247	440000	5	5.95	0.00272	457000	4	0.986	0.00193	1.96e+06	6	no binding
H4H1295P (antibody, V domains shown) VH: QVQLVQSGPEVKKPGASVRVSCKASGYLSDFIITWVRQAPGQGLEWMGWISTYSGDTDSAPKFQGRVTMTTDTSTTTVFLELRSLRSDDTAVYYCARGRLFDYWGQGTLVTVSS VL: not shown	–	0.197	7.35e-05	373000	157	0.226	7.95e-05	352000	145	–	–	–	–	–
H4H1263S (antibody, IgG4, V domains shown) VH: QVQLVQSGGGVVQPGRSLRLSCAASGFTFSTYGMHWVRQAPGKGLEWMAVISFDRGNKYYADSVKGRFTISRDNSKNTLYLQMNSLRAEDTAVYYCAKGGGSGTFYYYYGMDVWGQGTTVTVSS VL: DIQMTQSPSSVSASVGNRVTITCRASQGISSWLAWYHQKPGKVPKVLIYAASSLQSGVPSRFSGSGSGTDFTLTISSLQPEDFATYYCQQANSFPFTFGPGTKVEIKR	–	2.47	0.00126	508000	9	6.23	0.00422	677000	3	0.381	0.00181	4.74e+06	6	no binding
B2	33	–	–	–	–	–	–	–	–	–	–	–	–	–
H4H1268S (antibody, IgG4, V domains shown) VH: QVQLQQSGPGLVKPSQTLSLTCAISGDSVSSNSPAWNWIRQSPSRGLEWLGRTYYRSKWYNDYAVSVRGRITINPDTSNNQFSLHLNSVTPEDTAMYYCARDKGLTARPTYFDYWGQGTLVTVSS VL: DIQMTQSPSTLSASVGDRVTITCRASQSINYWLAWYQQKPGKAPKPLIYKASSLESGVPSRFSGSGSGTEFTLTISSLQPDDFTTYYCQQYNSYSPTFGQGTKLEIKR	–	1.47	0.00189	1.29e+06	6	0.721	0.000835	1.16e+06	14	–	–	–	–	–
H4H1282P (antibody, IgG4, V domains shown) VH: EVQLVQSGGGVVQPGRSLRLSCAASGFTFSNYGMHWVRQAPGKGLEWVAVVWYDGDNKYYADSVKGRFTISRDNSKNTLYLQMNSLRAEDTAVYYCARDIITSRPTLDYWGQGTLVTVSS VL: DIQLTQSPSFLSASVGDRVTITCWASQGINSYLAWYQQKPGKAPKLLIYPASTLQSGVPSRFSGSGSGTEFTLTISSLQPVDFATYYCQQLNSYPLTFGGGTKVEIKR	–	0.0968	9.26e-05	957000	125	0.0463	5.92e-05	1.28e+06	195	–	–	–	–	–
MfANGPTL3(17-170)-mmH (other) SRIDQDNSSFDSVSPEPKSRFAMLDDVKILANGLLQLGHGLKDFVHKTKGQINDIFQKLNIFDQSFYDLSLQTSEIKEEEKELRRTTYKLQVKNEEVKNMSLELNSKLESLLEEKILLQQKVKYLEEQLTNLIQNQPATPEHPEVTSLKSFVEKEQKLISEEDLGGEQKLISEEDLHHHHHH	625	–	–	–	–	–	–	–	–	–	–	–	–	–
